According to patent US20180028658A1 (NEW YORK BLOOD CENTER, published 2018):

B1: vc-MMAE-NIH45-46 G54W (NYBC-HC-001) (antibody, V domains shown)
VH: QVRLSQSGGQMKKPGESMRLSCRASGYEFLNCPINWIRLAPGRRPEWMGWLKPRWGAVNYARKFQGRVTMTRDVYSDTAFLELRSLTSDDTAVYFCTRGKYCTARDYYNWDFEHWGRGAPVTVSS
VL: EIVLTQSPATLSLSPGETAIISCRTSQSGSLAWYQQRPGQAPRLVIYSGSTRAAGIPDRFSGSRWGADYNLSISNLESGDFGVYYCQQYEFFGQGTKVQVDI
modifications: MC-vc-PAB-MMAE linker payload on cysteines reduced with TCEP (sites and number not stated)
B2: NIH45-46 G54W (antibody, V domains shown)
VH: B1 VH
VL: B1 VL
notes: Human IgG1; Obtained from the NIH AIDS Reagent Program and also made recombinantly (VH and VK genes in human b12 Igγ and Igκ backbone vectors, 293T cells); FITC-labelled in the uptake experiments; also called NIH45-45 G54W

What was measured:
[1] = target: T1, HIV-1 Env expressed on the surface of ACH-2 cells reactivated with TNF-α (HIV-1); assay: cell-based or functional assay
[2] = target: T2, BG505 SOSIP.664 gp140 trimer (HIV-1 BG505); assay: ELISA on coated BG505 SOSIP.664 gp140 trimer, OD at 405 nm, 1x PBS as blank
T2 construct: domain: gp140; Provided by Dr. John P Moore; When cleaved, each protomer is a gp120 chain plus a gp41 ectodomain chain; also called BG505 SOSIP.646; cleavable version gp140 trimer

[3] = target: T3, full-length gp120 monomer (HIV-1 (Yu2 by the materials, not named …, UniProt P35961 32-498)); assay: ELISA on coated full-length gp120 monomer, OD at 405 nm, 1x PBS as blank
T3 construct: domain: gp120; The tie to strain Yu2 is inferred from 'full-length Yu2 gp120 protein' in the materials. gp120IIIB and gp120BaL were also bought; General statements about 'gp120' are entered under this molecule; also called HIV-1 gp120 monomer; monomeric full-length gp120

[4] = target: T2, BG505 SOSIP.664 gp140 trimer; assay: SPR (BIAcore)
[5] = target: HIV-1 gp41 (strain not stated) (HIV-1); assay: SPR (BIAcore), Env protein immobilized on CM5 chip, antibody as analyte
[6] = target: T3, full-length gp120 monomer; assay: as above
[7] = target: T2, BG505 SOSIP.664 gp140 trimer; assay: as above
[8] = target: HIV-1 gp41 (strain not stated) (HIV-1); assay: method not given
[9] = target: T2, BG505 SOSIP.664 gp140 trimer; assay: method not given
[10] = target: T1, HIV-1 Env expressed on the surface of …; assay: flow cytometry titration on activated ACH-2 cells, from 20 µg/ml in 1:3 dilutions, FITC second antibody
[11] = target: T3, full-length gp120 monomer; assay: SPR (BIAcore); lower end of the stated KD range
[12] = target: T4, Recombinant gp41HXB2 (ecto-domain aa546 to 682) (HIV-1 HXB2, UniProt P04578 546-682); assay: ELISA on coated gp41HXB2, OD at 405 nm
T4 construct: range 546-682; Bought from Aviva System Biology Corp; also called gp41 from HIV-1 HXB2 ecto-domain

[13] = target: T5, SF162 gp140 trimer (HIV-1 SF162, UniProt P19550 32-675); assay: ELISA on coated SF162 gp140 trimer, OD at 405 nm, 1x PBS as blank
T5 construct: domain: gp140; Obtained from the NIH AIDS Reagent Program; also called non-cleavable version of gp140 trimer (SF162); uncleaved SF162 gp140 trimer

Binder | EC50 of cell killing, […]-BLUE cell viability assay on activated ACH-2 latent cells [1] | EC50 (read off the curve) [2] | EC50 (read off the curve) [3] | Kd [4] | Kd [5] | koff [5] | kon [5] | Kd [6] | koff [6] | Kd [7] | koff [7] | kon [7] | Kd [8] | Kd [9] | EC50 [10] | Kd [11] | binding result [12] | EC50 (read off the curve) [13]
B1 | 0.85 µg/mL |  |  |  |  |  |  |  |  |  |  |  |  |  |  |  |  | 
B2 |  | ~0.01 µg/mL | ~0.5 µg/mL | 0.23 to 0.29 nM | 6.75 nM | 0.00461 s⁻¹ | 683000 M⁻¹ s⁻¹ | 0.11 nM | 4.94e-06 s⁻¹ | 0.267 nM | 5.37e-06 s⁻¹ | 20100 M⁻¹ s⁻¹ | ~1 nM | ~0.1 nM | 5.2 µg/mL | 0.11 to 0.17 nM | binds | ~0.2 µg/mL
